Results: patent US20020081617A1, “Fluorescence and FRET based assays for biomolecules on beads” (priority 2000, published 2002)
Values joined by “and” are separate entries in the source; they are usually repeats but may differ in a detail not shown here. Identical values can stand only once. One block for each molecule: values may come before it.

Experiments:
streptavidin = streptavidin (Streptomyces avidinii, UniProt P22629); experiment: Ostrich quenching of fluorescein biotin bound to streptavidin; assay type: binding; details: bound to excess soluble streptavidin
Source text: Under certain circumstances, binding of fluorescent ligands to streptavidin is characterized by the quenching of fluorescence of bound relative to free ligands. Typically, this type of quenching referred to as “ostrich quenching” occurs when the fluorophore (e.g., fluorescein) moiety of a biotinylated ligand associates with the receptor pocket adjacent to the biotin-moiety bearing site. Such a method is described in the following reference: Buranda, T., Jones, G., Nolan, J., Keij, J., Lopez, G. P., and Sklar, L. A. (1999) Ligand Receptor Dynamics at Streptavidin Coated Particle Surfaces: A Flow Cytometric and Spectrofluorimetic Study J. Phys. Chem. B. 103, 3399-3410, the entire contents and disclosure of which is hereby incorporated by reference.
(§1) Ostrich quenching is dependent on the length and structure of the ligand. […] Addition of native biotin recovers the original intensity under diffusion-limited kinetics. The extent of quenching and recovery on beads depends on site occupancy of the fluorescein biotin. […] The five-fold increase in intensity was consistent with a result from a flow cytometry measurement (data not shown). […] The magnitude of n2 relative to n1 is likely due to the disruption of the packing of beads upon initial contact with the plug of sample. It is likely that such disruption can be minimized through optimization of bead packing and sample injection procedures.

[1] = target: streptavidin coated beads (Streptomyces avidinii, UniProt P22629); experiment: Binding of biotinylated ligands to streptavidin-coated beads (centrifugation assays); details: read-out: binding affinity (Kd) to streptavidin coated beads
Description: Binding analysis of biotinylated biomolecules to streptavidin-bearing beads were performed. Centrifugation assays using paired spectrofluorimetric and flow cytometric analysis were carried out to compare and corroborate the flow cytometric data against the traditional spectroflurometric measurements.
The flow cytometric analysis used a Becton-Dickinson FACScan flow cytometer obtained from Sunnyvale, Calif. that interfaced to a Power PC Macintosh using the CellQuest software package. The FACScan is equipped with a 15 mW air-cooled argon ion laser. The laser output is fixed at 488 nm. It has been shown that the mean of the histogram is the quantity relevant to binding capacity. The average fluorescence of a single bead is converted to the number of fluorophores per bead on the basis of flow cytometric calibration beads obtained from Quantum 825 Flow Cytometry Standards Corporation, San Juan, PR. […] [formula]
MCFLb mean channel fluorescence are the means of the histograms of the bound ligand Lb, corrected for nonspecific binding and standard calibration beads referred to as std, observed at similar detection settings. MESF stands for mean equivalent of soluble fluorophores and is the number of fluorescein molecules whose emission intensity is equal to MCFstd on each bead.
The magnitude of bound sites per bead were determined from centrifugation assays.

[2] = target: fluorescein biotin-bearing beads (Streptomyces avidinii, UniProt P22629); experiment: Detection of native biotin via fluorescence unquenching of fluorescein biotin in affinity micro-column; assay type: binding; details: 2 μL aliquot of 3 mM native biotin
Source text: Streptavidin coated beads bearing ≈1×10^6 fluorophores/bead were packed into the micro-channel.
as §1

[3] = target: biotinylated and fluorescein-tagged 5-FLAG peptide on streptavidin-coated beads; experiment: flow cytometry of bead-borne FLAG peptides incubated with TR-M1 mAbs, FRET quenching (FIG. 18)
[4] = target: biotinylated and fluorescein-tagged 5-FLAG peptide on streptavidin-coated beads; experiment: FRET quenching on 5-FLAG bearing beads, flow cytometry, buffer with Ca2+, sigmoidal analysis
[5] = target: biotinylated and fluorescein-tagged 5-FLAG peptide on streptavidin-coated beads; experiment: FRET quenching of 5-FLAG on beads by TR-M1 (FIG. 8)
[6] = target: biotinylated and fluorescein-tagged 5-FLAG peptide on streptavidin-coated beads; experiment: affinity micro-column of fluorescein FLAG peptide beads, real-time FRET, kinetic model fit
[7] = target: biotinylated and fluorescein-tagged 5-FLAG peptide on streptavidin-coated beads; experiment: FRET quenching on 5-FLAG bearing beads, flow cytometry, calcium-free buffer, sigmoidal analysis
[8] = target: biotinylated and fluorescein-tagged 5-FLAG peptide on streptavidin-coated beads; experiment: affinity micro-column of fluorescein FLAG peptide beads, FRET endpoints, sigmoidal dose-response curve
[9] = target: non-biotinylated fluorescent 5-FLAG peptide (soluble); experiment: FRET titration of TR-M1 into fluorescent FLAG peptide in solution, spectrofluorimetry, 1 mM Ca2+
[10] = target: streptavidin on 6.2 µm streptavidin-coated beads (UniProt P22629); experiment: centrifugation assay with spectrofluorimetry and flow cytometry; biotinylated peptide on streptavidin-coated beads (binding through biotin)
[11] = target: non-biotinylated fluorescent 5-FLAG peptide (soluble); experiment: centrifugation assay, spectrofluorimetry of residual supernatants; soluble fluorescent FLAG peptide on M2-bearing beads
[12] = target: Texas-Red labeled M1 anti-FLAG monoclonal antibody (IgG); experiment: competition: TR-M1 pre-equilibrated with thousand-fold excess soluble non-fluorescent FLAG peptide, then passed over bead-borne fluorescein FLAG peptide; FRET

streptavidin on 6.2 µm streptavidin-coated beads, sequence (P22629 37-163 limits assumed): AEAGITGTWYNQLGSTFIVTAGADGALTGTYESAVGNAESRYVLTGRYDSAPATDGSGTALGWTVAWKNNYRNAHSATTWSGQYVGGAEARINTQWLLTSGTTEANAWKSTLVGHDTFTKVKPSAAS

Molecule: O=C(CCCCCNC(=O)CCCC[C@@H]1SC[C@@H]2NC(=O)N[C@@H]21)NCCCCCNC(=S)Nc1ccc2c(c1)C(=O)OC21c2ccc(O)cc2Oc2cc(O)ccc21 [fluorescein biotin]
quenching of the fluorescence (streptavidin): > 90%
Kd [1]: ~0.5 nM

Molecule: O=C(O)CCCC[C@@H]1SC[C@@H]2NC(=O)N[C@@H]21 [native biotin, biotin]
increase in intensity of fluorescein biotin-bearing beads [2]: fivefold

Molecule: Biotinylated and fluorescein-tagged FLAG peptide (epitope DYKDDDDK) tethered to streptavidin-coated beads [5-FLAG]
Kd [1]: 0.3 nM and ~0.3 nM

Molecule: Texas-Red labeled M1 anti-FLAG monoclonal antibody (IgG)
Kd [3]: 4 nM
Kd [4]: 4 nM
quenching of peptide fluorescence at saturation [5]: > 60%
Kd [6]: 13.3 nM
koff [6]: 0.0012 s⁻¹
kon [6]: 90000 M⁻¹ s⁻¹
Kd [7]: 37 nM
Kd [8]: 10 nM
Kd [9]: 9 nM

More lines, now with the values ahead:

Kd [10]: 0.3 nM
Molecule: biotinylated and fluorescein-tagged 5-FLAG peptide on streptavidin-coated beads

Kd [11]: 8 nM
Molecule: biotinylated anti-FLAG M2 IgG on streptavidin-coated beads (antibody)

FRET signal remaining with thousand fold excess of soluble peptide [12]: < 10%
Molecule: dark non-fluorescent FLAG peptide (soluble)
